Experimental data taken from the DeepSol protein solubility set.

Assay: soluble on expression in E. coli; label from the status in PepcDB or PDB records

| Sequence | soluble on expression in E. coli |
| --- | --- |
| MGSDKIHHHHHHMNAIASRQRPLLPVREAVVTRVRGSAPTAVGASMCLLEDGSLLGTVGGGRMEYQVCQVLCSPRSEAPPALLSFTLGTADDQCCGGQVEICVLDVPLFFSELYQPGASRLYQRDSAGRLRLVAGMTRLGREIGSFDALTVLLRANAPGMDVEERHFALPAPHHQPLWIFGAGHVGRAIASMAHKLDFASSVFDQRPEWADPAAFPPEVTLVDTWTWADLQAPATDAMVLIMTYSHAMDYALLEHFIGEPLAYLGVIASRSKAARFSHALSRAGHDIPDYLHMPMGLPGMGKKPPEIAISVLAELLQLRHKKTDF | not soluble |
| MSKLYLMSLGCNKNLVDSEIMLGHLSAYELCDEPSKADVLIVNTCGFIDSAKKESINAILDLHEQRKKDSLLVVTGCLMQRYREELMKELPEVDLFTGVGDYERIDEMILKKTNLFSNSTYLQSENSKRIITGSNSHAFIKIAEGCNQKCSFCAIPSFKGKLKSREISSIIAELKDLVARGYKDFSFIAQDTSSYLFDKGEKDGLIRLIDEVEKIKGIRAARILYLYPTSASEALIKRIIASEIFINYFDMPLQHISDNMLKIMKRGANSTRLKEMLNLMKSAPNSFLRTGFIVGHPGESEADFEELCEFVKDFGFDRISVFAYSKEEDTAAFDMEQVPFKVINKRLKIIEKIVDEVIEKSFEKEVGQKRLVVCTGKSSEGEFFIAAKDLRWDREIDGEILINESECGNLEMGQIYECEILQNLDKKLLAKALRKVDANLEHHHHHH | soluble |
| ENKTLDEVTSDLVSRGAKFVGEELQLDVGGLLLHFFNYNGKIVVSSMKKVGFLQTLNRKRLENHPSFVFLEKEVPKSVFLEVFVDLYTLFDKLLGFSPRSSLLLIGYEEDGLIKYRLEVM | not soluble |
| MGSDKIHHHHHHMFLILLEVIVTSCPLLSSSFARLNPIPLDDAVIRTFMFIILHCKDKSIANPGAIIYKPFYPKFRVMERNELVNFVEGILKRIGFRTMKLEFRGGCFDLVATRQLLLLFIKALANIDKFSEEQAEDLKKLAKLFKASPLLVGLRSKNAELEDGVVYERFGIYAITPGTLYSMFAEGEPPLIIAERGGFYVRIDGKKLKALREEHGYSITELAGILGISRKSLQRYEKGESVVSLEVALRLEEVFDEPLVKPIDVLRARLKDVTLTSEPDNILEKEVFEKLRKLGMSVVKIKTAPFNAITKEEEDDIELLTGIDERKTGRTLKRAELVSQMAEVVGSDGVFVVKKARMEVVRNVPILPKKLLEEIKDADELLELIRDLKFKS | not soluble |
| MGSDKIHHHHHHLSISIGSIKRAEAGKNILYRTLVQLSEFFHISIEDLIGDIPVSLWDYVRERPTQLIPCIGRDWELSLLQKLQLSSKTGLKTACVYGMQGLGKTSLVRHFLSRLDQTNWRALYLCSLDQGTFLRRFICTLLDISEIFDDEQLRFRIKMISTSPLVYFYLLRLSGLVLHKSELQAINNLSENRLHEVEVLSVMGLIQNFKQRKVSVLAIDSLHILNEGQLRVIKIFTQNMITQPILIIFSLTDVHRLLYLPDWLQSSNQIQLKPLQAIAMNALVNNEVEMNPCQPMKLAAYKKIVVQRARGNPLILKALIKSKRPDQDFPEEMVNSVQGMLTQLTGIECRLLQFLAACGPCVSIDTLELFNSQLSEPCICLLHRLVRIGFLYPRSECYIFRHILIWEIVKAQMNDSDTASVYSEQHNRLNA | not soluble |
| MGSDKIHHHHHHVVNAIEVSDISKQFVLRHTRSIKEAVVWLAKGRKGDLSEKFHALKNVTLEVKTGETVALLGLNGSGKSTLLKHISGVMLPDSGTVRTRGRVAGLIEVGAGFHPDLSGRDNVYLNGAILGMTEQQVNDRFDDIVEFSETGQFIDTEVKFYSSGMYLRLAFSVAVHTDPEVFLIDEILAVGDEPFQRKCIDKIQELARNGKTLVVVSHDLDLVSRICARGILLEHGNVKFDGSIHDAVALLRA | not soluble |
| MSLTDEQFNPQDEEIEIEAIGVEVSCQPIELYKVLKIANAVSGGGEAKHVISEGYVFVNGDVETRKRCKVFDGDLIEFNQEFYLVICDAPVTEPESFDTQPELASSHKPTKTQKKSSANTSAKSKPSKNNKTVSGQKKAKNDKKSPQSDSKSPSGRSAIRFFEGGSHHHHHH | soluble |
| SSAESVSCTVKSPVALQIGDAVSDSSRPGVYITDITLAEPVNIQEISFKNFYTAYLTVRLQRRHGSTASKWVTCLKNYCLMGNPHAEAGSHDYFSIYRQQMSTEPDNVTTVRLILRQPSSEWLSFSIEEINIYPCTKEDSERDVPAWLSTLTPVDEPLDLKGLPDPETVSSSIQQMWALTEIMQASQTAASIGRFDVEGAYDVKLLSYT | not soluble |
| MPGITFKEDANERGRQIEHWPLLKNGSIFVIADDGTRYFQEDAKHRHGHVYTHGSWLIPMNNQHPYLIFDQTQYDAFKQEESQAGQLPYPKFMTKLVSAPTIAQLAAKLGVPANNLQQTVTDFNHYTEVGRDFEFGRDPQTMRQLDDGPYYAIAALEHHHHHH | soluble |
| MTTAAEIITVEKLNDFDYKVALQQQMVAAQNGAAAAVLRPHQIGSSPEAPQSQTSGGSTEQLQQQPLPPPTQQKQQQPLTIGPVAPNDRSTSSSSTDGPRRLHVSNIPFKYREPDLTAMFEKVGPVVDVEIIFNERGSKGFGFVTMQNPDDADRARAEFNGTTIEGRRVEVNLATQRVHNKKAKPLMSVGVDAMSAQNALISQQQQIQRAALLQQQLLAQQFLVPRHQQLMMPPTSAAAISQLQALQYQQALLAAQQQQQQMQNPQFLLSLQQQQQAQAQAPPTSMAQLIQHQQQFAMDPMAQAQAQAAQAQMVTLIAFEQQRMQLQAAAAAAQGRGVPQPGRIPTSTATTGSSQNQVAAGSIGEQYLQQSMQGAVPANFHHHSQALHPAAAAAAALQRRFAPY | not soluble |
| MSEPADLIGEIDALGIKLQEARASITRRFIGQERVVDLTLTALLCGGHALLIGLPGLGKTRLVETLSTVMGLHGNRIQFTPDLMPADILGSEVLDTAEDGSRRFRFIPGPIFCQLLMADEINRASPRTQSALLQAMQEKTVTVAGENRPLGTPFHVLATQNPIEQEGTYPLPEAQLDRFLVQIDVDYPDRATEREILLATTGVEEAEAHQVMSQADLLGAQVLLRRMPVGESVVEMILDLVRAFRPDEPGVSDRVRDTVAWGPGPRAAQALMLTVRARALLQGRLAPSPEDVLDMARPVLSHRMALNFAARARGDTLAGLIDETAASLTRTEAAALEHHHHHH | not soluble |
| LIEGSERLSGLTDVDEVIKDLSRLLRKLVKTRWIAVYFFDRERRDFAPARSTGLPASFLPVFREMPLAPDKIPLLKSMLRKRQHLMLTDPGSSDLLTPKLRKLLRNLCVLAVPMVVRTQVIGAVFMARTRDNPPFSDAETAIIRDLVSHAALVVSHMQLFDE | soluble |
| MGSDKIHHHHHHMQRENFGPAWLNENNAVMYFIVGTDIDVDIDDEIKTYEDIIQVDINENYHNITYKAIFWINEINKCRHGPKLLLKIDDDVHIDMIGLQFLIKRYSVMDDFMACRVISNGQVVRNNTSKWYLSKKDYKFPNLGTYCQGMVYFISGNLLPILHGNIEKSQFLWMDDWYVTRSLVGDYKISYYSLEQHSISPNTVREVYSSLMAIKTRKWRTIFAHFRPPQKFPMYRRRKIWANITEINNSCNILRKARINFVSAY | not soluble |
| MSLEDTLQAPTPLQIERWLRKQFYSVDRNREDRISAKDLKNMLSQVNYRVPNMRFLRERLTDLEQRSGDITYGQFAQLYRSLMYSAQKTMDLPFLEASTLRAGERPELCRVSLPEFQQFLLDYQGELWAVDRLQVQEFMLSFLRDPLREIEEPYFFLDEFVTFLFSKENSVWNSQLDAVCPDTMNNPLSHYWISSSHNTYLTGDQFSSESSLEAYARCLRMGCRCIELDCWDGPDGMPVIYHGHTLTTKIKFSDVLHTIKEHAFVASEYPVILSIEDHCSIAQQRNMAQYFKKVLGDTLLTKPVEISADGLPSPNQLKRKILIKHKKLAEGSAYDENSPLGDLLRGVLDVPACQIAIRPEGKNNRLFVFSISMASVAHWSLDVAADSQEELQDEGHHHHHH | not soluble |
| MGSDKIHHHHHHMPLKSSYSDQLKKTDQSLIALLSDRISLLASEQPSLDEQLASVAPLLAQAGIPESVWAGVVNSCHASLTPKSAINHASPRQVTIIGGRGRMGRLFQEQLSLVGHNVSILEHEDWEYAEQLLSQAELVLVSVPIEHTVDVIKRAAKYLASNTALCDITSIKTQPTQAMLEHHCGPVMGLHPMFGPNIKSFLGQKVVVCPGRNDDSFQWLLDFLKSKGGELIVCTPEEHDRMMVIIQATQHFCRFSLGVFLAQARVEIEQSLTMSTPNYRQEIDIVKRLFAQNPNLCVDIMLATEERCNAISFLANTYSRLARLVARKDREALIKEFENTQSFFEGKINSFLQPLNTTALKRDFKPQNIGI | not soluble |
| MRKMMPMNPKQLKKLMKQLDMRQLEGVKEVIIKMEDREIIIKEPIVTVIKAMGEKMYQIAGGSEEEKAIINISEEDIKLVMEQAGVDYETAKKALEETGGDLAEAILRLTDSGVE | soluble |
| MALTSFLPAPTQLSQDQLEAEEKARSQRSRQTSLVSSRREPPPYGYRKGWIPRLLEDFGDGGAFPEIHVAQYPLDMGRKKKMSNALAIQVDSEGKIKYDAIARQGQSKDKVIYSKYTDLVPKEVMNADDPDLQRPDEEAIKEITEKTRVALEKSVSQKVAAAMPVRAADKLAPAQYIRYTPSQQGVAFNSGAKQRVIRMVEMQKDPMEPPRFKINKKIPRGPPSPPAPVMHSPSRKMTVKEQQEWKIPPCISNWKNAKGYTIPLDKRLAADGRGLQTVHINENFAKLAEALYIADRKAREAVEMRAQVERKMAQKEKEKHEEKLREMAQKARERRAGIKTHVEKEDGEARERDEIRHDRRKERQHDRNLSRAAPDKRSKLQRNENRDISEVIALGVPNPRTSNEVQYDQRLFNQSKGMDSGFAGGEDEIYNVYDQAWRGGKDMAQSIYRPSKNLDKDMYGDDLEARIKTNRFVPDKEFSGSDRRQRGREGPVQFEEDPFGLDKFLEEAKQHGGSKRPSDSSRPKEHEHEGKKRRKE | soluble |
| MFNKLSTPIHIIGGGLAGCEASWQIAQSGIPVILHEMRPQKKSEAHKTGQLAELVCSNSFRSDDSSTNAVGLLHTEMRLAKSLIMKAADANKVPAGSALAVDRDGFSKTVTAALENHPLITIKREEIQEIPENWPHIIIATGPLTSPKLAKAIQTITGTEALSFFDAIAPIIYTDSINMDICWYQSRYDKIGPEGTGKDYLNCPLNKEQYEAFVQALKNAEKTEFRDFEKTPYFDGCLPIEVMAERGLETLRHGPMKPMGLTNAHNPTVKAYAVVQLRQDNKLGTLYNMVGFQTKLKYGEQVRIFRMIPGLENAEFARLGGLHRNTYLNSPIILDQTLRLKQRPGLRFAGQITGCEGYVESSAIGLLAGRFAAAEYHYNCPCLPPLTTALGLEHHHHHH | soluble |
| MSLQEDPVVMRINGKDIPRSEFEYSYRRHADGNGMKLSPKEYAEFFIQSKLKVEAARAAGLDTTSAFRKQQEAYRTNLLRSYLLDDQEMDGNARILYQKMKENVRGGQVQIQQIYKYLPQTITSRHLQEEQARMDSIYQVIQNQPGVDFARLVDRFSDDKRCRWIESLQTTSEFEEAAFSLAKGEISKPFFTPEGIHILKVIDRKEVPAYEVVSDSLLNRLRRQPLDKGTEAIVEQLKKEYQYIPNMESLEEVLQKGGTERTLFTIDGQAYTGEMFKRFAASHPQAVKRQLNGFIAKSLLDYESQHMERKHPELRYTLQEYAEKCLAEEIVHQKVDLPAVNDRVGLATYFKFHSSDYRWEHPRYKGVVLHCADKKTAKQAKKLLKKVPENEWEDMLRKTFNTSGAEIIKIEQGVFADGDNKYIDKLVFKKGAFDPVVSYPFTIAVGKKQKGPEDYREVIDQVRKDYRNYLNAYWERELRESGKVEINQEVLKTVNNEGHHHHHH | soluble |
| MGSDKIHHHHHHMYIGCNWSKALKFLLEKDEVKIDYIKAGAYGDFENEFSTMRSMKPILIHGLGKFERTGMKDINLVDFDRANSIIKRCSSPHFGIHLEIKNSDMYEGMRDENIYEYMCKQIQTFKKNIEVPLLLENVPDSPIEHTVFDCYPYFQPKKLTKLFLDNNVDFLLDLTHAKITSKYHKIDVHEYLNGLPLERVREIHVNGSGYDEEGFPMDTHSSMEKEDYDLLRWVLTYSKPYVVTLEYAGTKKEKEADIIASLKTQLREIQNIIISR | not soluble |
